We go through one substance from article PMC9871958.

This assay addresses SARS-CoV-2 spike ectodomain (S-trimer) (SARS-CoV-2) (UniProt P0DTC2). The assay is described as follows: cryo-EM structure.

“SARS-CoV-2 spike ectodomain (S-trimer) (from UniProt P0DTC2 14-1213) (complex)” gave a stoichiometry N of 3.

In general, stoichiometry N refers to the number of molecules, sites or subunits per partner or assembly.
